Drawing on article PMC3935488, this text covers EC50 of guanylate cyclase activation (cGMP produced) with 0–20 μM Ca2+-free, Mg2+-bound GCAP2, HEK cell membranes, 30 min and EC50 of guanylate cyclase activation (cGMP produced) with 0–20 μM Ca2+-free, Mg2+-bound GCAP1, HEK cell membranes, 30 min for 2 molecules.

In assay [1] the target is human rod outer segment guanylate cyclase 1 (ROS-GC1), mutant P575L (human) (UniProt Q02846).
The target of assay [2] is human rod outer segment guanylate cyclase 1 (ROS-GC1), wildtype (human) (UniProt Q02846).

B1: bovine guanylate cyclase-activating protein 2 (GCAP2), myristoylated (natural protein)
chain: MGQQFSWEEAEENGAVGAADAAQLQEWYKKFLEECPSGTLFMHEFKRFFKVPDNEEATQYVEAMFRAFDTNGDNTIDFLEYVAALNLVLRGTLEHKLKWTFKIYDKDRNGCIDRQELLDIVESIYKLKKACSVEVEAEQQGKLLTPEEVVDRIFLLVDENGDGQLSLNEFVEGARRDKWVMKMLQMDLNPSSWISQQRRKSAMF
modifications: myristoylated (degree of myristoylation typically higher than 90%)
Consider B1, for which the EC50 of guanylate cyclase activation (cGMP produced) with 0–20 μM Ca2+-free, Mg2+-bound GCAP2, HEK cell membranes, 30 min in assay [1] turned out to be 7.44 µM; in assay [2] it was 8.34 µM.

B2: bovine guanylate cyclase-activating protein 1 (GCAP1), D6S mutant, myristoylated (natural protein)
chain: MGNIMSGKSVEELSSTECHQWYKKFMTECPSGQLTLYEFRQFFGLKNLSPWASQYVEQMFETFDFNKDGYIDFMEYVAALSLVLKGKVEQKLRWYFKLYDVDGNGCIDRDELLTIIRAIRAINPCSDSTMTAEEFTDTVFSKIDVNGDGELSLEEFMEGVQKDQMLLDTLTRSLDLTRIVRRLQNGEQDEEGASGRETEAAEADG
modifications: myristoylated (degree of myristoylation typically higher than 90%)
With B2, the EC50 of guanylate cyclase activation (cGMP produced) with 0–20 μM Ca2+-free, Mg2+-bound GCAP1, HEK cell membranes, 30 min amounted to 3.32 µM in assay [1] and 2.93 µM in assay [2].
